From patent US20250237661A1 (MESO SCALE TECHNOLOGIES, published 2025)

Molecular target: T1, angiotensin-converting enzyme 2 (ACE2), labeled with a detection label (human, UniProt Q9BYF1 18-740)
T1 construct: also called labeled ACE2
Experiment: labeled ACE2 on immobilized Mixed Panel antigens, ECL

T1 sequence (Q9BYF1 18-740 limits assumed): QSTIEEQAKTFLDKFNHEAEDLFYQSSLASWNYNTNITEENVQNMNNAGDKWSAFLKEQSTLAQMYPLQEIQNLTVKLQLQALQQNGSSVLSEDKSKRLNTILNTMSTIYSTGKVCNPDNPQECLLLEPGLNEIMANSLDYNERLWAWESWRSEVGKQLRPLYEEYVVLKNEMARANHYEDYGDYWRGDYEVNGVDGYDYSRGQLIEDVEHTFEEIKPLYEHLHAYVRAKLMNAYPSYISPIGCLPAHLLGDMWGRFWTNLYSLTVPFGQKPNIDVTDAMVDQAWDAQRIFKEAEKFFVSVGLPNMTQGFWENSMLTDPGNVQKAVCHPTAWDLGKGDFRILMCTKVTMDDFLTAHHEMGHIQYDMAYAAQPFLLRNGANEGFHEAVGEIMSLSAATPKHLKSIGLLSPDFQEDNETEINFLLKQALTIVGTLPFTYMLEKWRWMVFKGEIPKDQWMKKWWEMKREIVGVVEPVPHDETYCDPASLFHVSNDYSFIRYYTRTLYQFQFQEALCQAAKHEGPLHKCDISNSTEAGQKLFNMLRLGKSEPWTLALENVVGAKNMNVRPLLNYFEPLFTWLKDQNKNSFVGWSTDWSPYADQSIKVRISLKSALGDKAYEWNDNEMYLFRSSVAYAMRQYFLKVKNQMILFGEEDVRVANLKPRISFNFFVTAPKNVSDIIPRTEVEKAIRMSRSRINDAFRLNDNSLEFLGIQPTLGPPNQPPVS

B1: HCoV-OC43 S protein (other)
chain: AVIGDLKCTSDNINDKDTGPPPISTDTVDVTNGLGTYYVLDRVYLNTTLFLNGYYPTSGSTYRNMALKGSVLLSRLWFKPPFLSDFINGIFAKVKNTKVIKDRVMYSEFPAITIGSTFVNTSYSVVVQPRTINSTQDGDNKLQGLLEVSVCQYNMCEYPQTICHPNLGNHRKELWHLDTGVVSCLYKRNFTYDVNADYLYFHFYQEGGTFYAYFTDTGVVTKFLFNVYLGMALSHYYVMPLTCNSKLTLEYWVTPLTSRQYLLAFNQDGIIFNAEDCMSDFMSEIKCKTQSIAPPTGVYELNGYTVQPIADVYRRKPNLPNCNIEAWLNDKSVPSPLNWERKTFSNCNFNMSSLMSFIQADSFTCNNIDAAKIYGMCFSSITIDKFAIPNGRKVDLQLGNLGYLQSFNYRIDTTATSCQLYYNLPAANVSVSRFNPSTWNKRFGFIEDSVFKPRPAGVLTNHDVVYAQHCFKAPKNFCPCKLNGSCVGSGPGKNNGIGTCPAGTNYLTCDNLCTPDPITFTGTYKCPQTKSLVGIGEHCSGLAVKSDYCGGNSCTCRPQAFLGWSADSCLQGDKCNIFANFILHDVNSGLTCSTDLQKANTDIILGVCVNYDLYGILGQGIFVEVNATYYNSWQNLLYDSNGNLYGFRDYIINRTFMIRSCYSGRVSAAFHANSSEPALLFRNIKCNYVFNNSLTRQLQPINYFDSYLGCVVNAYNSTAISVQTCDLTVGSGYCVDYSKNRRSRGAITTGYRFTNFEPFTVNSVNDSLEPVGGLYEIQIPSEFTIGNMVEFIQTSSPKVTIDCAAFVCGDYAACKSQLVEYGSFCDNINAILTEVNELLDTTQLQVANSLMNGVTLSTKLKDGVNFNVDDINFSPVLGCLGSECSKASSRSAIEDLLFDKVKLSDVGFVEAYNNCTGGAEIRDLICVQSYKGIKVLPPLLSENQISGYTLAATSASLFPPWTAAAGVPFYLNVQYRINGLGVTMDVLSQNQKLIANAFNNALYAIQEGFDATNSALVKIQAVVNANAEALNNLLQQLSNRFGAISASLQEILSRLDALEAEAQIDRLINGRLTALNAYVSQQLSDSTLVKFSAAQAMEKVNECVKSQSSRINFCGNGNHIISLVQNAPYGLYFIHFSYVPTKYVTARVSPGLCIAGDRGIAPKSGYFVNVNNTWMYTGSGYYYPEPITENNVVVMSTCAVNYTKAPYVMLNTSIPNLPDFKEELDQWFKNQTSVAPDLSLDYINVTFLDLQVEMNRLQEAIKVLNQSYINLKDIGTYEYYVKWP
  binding result: no binding
